Earlier results on one substance are cited in publication PMC5615855.

One may read the Kd as the constant that tells how readily two partners part at equilibrium.

The data set concerns the target N2B (HEB) N2B (Homo sapiens) (UniProt Q99081).

For “NHR2 (AML1-ETO) NHR2 (from UniProt Q06455)”, the dissociation constant (Kd) is 356 µM.
